Source: doi:10.1101/2023.06.21.546005 (bioRxiv, 2023)

Molecular target: the molecule itself
Test: crystal structure

Protein | stoichiometry N | binding result
Recombinant wild-type L-chain ferritin from horse spleen (natural protein, UniProt P02791 1-175, looked up) MSSQIRQNYSTEVEAAVNRLVNLYLRASYTYLSLGFYFDRDDVALEGVCHFFRELAEEKREGAERLLKMQNQRGGRALFQDLQKPSQDEWGTTLDAMKAAIVLEKSLNQALLDLHALGSAQADPHLCDFLESHFLDEEVKLIKKMGDHLTNIQRLVGSQAGLGEYLFERLTLKHD | 24 | –
Fr-A115V (natural protein, horse, UniProt P02791 1-175, looked up) MSSQIRQNYSTEVEAAVNRLVNLYLRASYTYLSLGFYFDRDDVALEGVCHFFRELAEEKREGAERLLKMQNQRGGRALFQDLQKPSQDEWGTTLDAMKAAIVLEKSLNQALLDLHVLGSAQADPHLCDFLESHFLDEEVKLIKKMGDHLTNIQRLVGSQAGLGEYLFERLTLKHD | – | binds
Fr-A115T (natural protein, horse, UniProt P02791 1-175, looked up) MSSQIRQNYSTEVEAAVNRLVNLYLRASYTYLSLGFYFDRDDVALEGVCHFFRELAEEKREGAERLLKMQNQRGGRALFQDLQKPSQDEWGTTLDAMKAAIVLEKSLNQALLDLHTLGSAQADPHLCDFLESHFLDEEVKLIKKMGDHLTNIQRLVGSQAGLGEYLFERLTLKHD | – | binds
Fr-A115G (natural protein, horse, UniProt P02791 1-175, looked up) MSSQIRQNYSTEVEAAVNRLVNLYLRASYTYLSLGFYFDRDDVALEGVCHFFRELAEEKREGAERLLKMQNQRGGRALFQDLQKPSQDEWGTTLDAMKAAIVLEKSLNQALLDLHGLGSAQADPHLCDFLESHFLDEEVKLIKKMGDHLTNIQRLVGSQAGLGEYLFERLTLKHD | – | binds
Fr-H114A (natural protein, horse, UniProt P02791 1-175, looked up) MSSQIRQNYSTEVEAAVNRLVNLYLRASYTYLSLGFYFDRDDVALEGVCHFFRELAEEKREGAERLLKMQNQRGGRALFQDLQKPSQDEWGTTLDAMKAAIVLEKSLNQALLDLAALGSAQADPHLCDFLESHFLDEEVKLIKKMGDHLTNIQRLVGSQAGLGEYLFERLTLKHD | – | binds
Fr-S118A (natural protein, horse, UniProt P02791 1-175, looked up) MSSQIRQNYSTEVEAAVNRLVNLYLRASYTYLSLGFYFDRDDVALEGVCHFFRELAEEKREGAERLLKMQNQRGGRALFQDLQKPSQDEWGTTLDAMKAAIVLEKSLNQALLDLHALGAAQADPHLCDFLESHFLDEEVKLIKKMGDHLTNIQRLVGSQAGLGEYLFERLTLKHD | – | binds
